From patent US20260226095A1 (GLYTECH, published 2026)

Target: hPSMA (purified and soluble antigen) (human (printed as hPSMA), UniProt Q04609 44-750)
Assay: SPR, Biacore T200, standard kinetics, antigen immobilized on CM5 chip

Chain of hPSMA (purified and soluble antigen) (Q04609 44-750): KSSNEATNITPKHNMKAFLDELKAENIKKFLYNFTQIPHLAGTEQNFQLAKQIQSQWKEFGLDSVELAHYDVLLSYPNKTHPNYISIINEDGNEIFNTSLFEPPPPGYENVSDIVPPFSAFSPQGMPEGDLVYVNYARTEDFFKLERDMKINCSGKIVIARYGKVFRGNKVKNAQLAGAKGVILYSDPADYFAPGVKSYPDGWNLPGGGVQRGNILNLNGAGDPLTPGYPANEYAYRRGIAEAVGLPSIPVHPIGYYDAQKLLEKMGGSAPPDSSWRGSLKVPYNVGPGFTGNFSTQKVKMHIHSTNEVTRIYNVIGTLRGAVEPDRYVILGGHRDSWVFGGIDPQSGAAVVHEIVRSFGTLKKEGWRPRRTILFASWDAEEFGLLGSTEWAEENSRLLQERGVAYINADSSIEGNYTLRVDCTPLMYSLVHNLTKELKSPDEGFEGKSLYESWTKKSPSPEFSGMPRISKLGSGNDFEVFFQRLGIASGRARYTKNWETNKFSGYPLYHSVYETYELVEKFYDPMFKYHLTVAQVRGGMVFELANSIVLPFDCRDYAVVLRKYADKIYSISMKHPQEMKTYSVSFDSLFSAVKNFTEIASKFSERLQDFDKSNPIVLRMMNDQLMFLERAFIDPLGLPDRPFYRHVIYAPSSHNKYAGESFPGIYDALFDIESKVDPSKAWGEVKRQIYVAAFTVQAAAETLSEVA

| Binder | Kd [nM] |
| --- | --- |
| scFv Ab1 (D2B) of synthesis (scFv, L-pyroglutamic acid (<E) printed at position 1 of segment 1; two disulfide bonds (C22-C96 and C161-C226), Made by full chemical synthesis, 254 residues ending at H254; also called scFv Ab1 synthesis; scFv D2B) scFv: EVKLQESGPGLVKPSQSLSLTCSVTGYSITSGYYWNWIRQFPGNKLEWMGSISFDGNNNYNPSLRNRISITRDTSKNQFFLKLNSVTTEDTATYYCAREGDYYGSSFFTYWGQGTLVTVSSGGGGSGGGGSGGGGSALDIVMTQSPASLSASVGETVTLTCGASENIYGALNWYQRKQGKSPQLLIYGATNLADGMSSRFSGSGSGRQYSLKISSLHPDDVATYYCQNVFRTYTFGGGTKLEIKRAAAHHHHHH | 12 |
| scFv Ab1 RREF (scFv, Produced in a prokaryotic system; Contains two tags (Myc and His); not shown: Myc tag present in RREF in addition to the His tag) scFv: EVKLQESGPGLVKPSQSLSLTCSVTGYSITSGYYWNWIRQFPGNKLEWMGSISFDGNNNYNPSLRNRISITRDTSKNQFFLKLNSVTTEDTATYYCAREGDYYGSSFFTYWGQGTLVTVSSGGGGSGGGGSGGGGSALDIVMTQSPASLSASVGETVTLTCGASENIYGALNWYQRKQGKSPQLLIYGATNLADGMSSRFSGSGSGRQYSLKISSLHPDDVATYYCQNVFRTYTFGGGTKLEIKRAAAHHHHHH | 27 |
